Laboratory results taken from US20240252641A1 (TCR2 THERAPEUTICS, published 2024).

Experiments:
[1] = target: T1, human CD70, recombinant, N-terminally biotinylated (residues 39-193) (human, UniProt P32970 39-193, N-terminal biotin); experiment: CD27 blocking ELISA, 3 µM scFv, strep/HRP
T1 construct: range 39-193; the same entry is used there; also called biotinylated human CD70; CD70 biotin
T1 sequence (looked up): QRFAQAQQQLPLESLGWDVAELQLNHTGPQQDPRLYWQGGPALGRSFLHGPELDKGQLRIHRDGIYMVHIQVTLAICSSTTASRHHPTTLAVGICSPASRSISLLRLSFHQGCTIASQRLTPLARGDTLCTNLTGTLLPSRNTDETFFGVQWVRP

[2] = target: T2, CD70 on cells (CHO-CD70, JVM-3, U266, Raji, THP-1, T cells) (human, UniProt P32970 1-193); experiment: 1.25 µg/mL scFv on JVM-3 cells
T2 construct: whole, on cells; also called cell-surface CD70
T2 sequence (looked up): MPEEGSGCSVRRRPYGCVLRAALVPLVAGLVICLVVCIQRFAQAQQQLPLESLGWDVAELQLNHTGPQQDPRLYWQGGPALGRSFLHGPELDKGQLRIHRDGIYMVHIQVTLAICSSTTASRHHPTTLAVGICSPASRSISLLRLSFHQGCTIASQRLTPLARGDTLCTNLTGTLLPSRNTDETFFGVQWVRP
In short: (§1)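 Human scFv antibodies were raised by panning a naïve human library against the CD70 extracellular domain (aa39-193). They were tested for binding to tumour cell lines with high CD70 expression (CHO-CD70, JVM3, U266) and low CD70 expression (CHO WT, K562). Cell binding was recorded per cell line, and the detection method is not stated.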

[3] = target: T1, human CD70, recombinant, N-terminally …; experiment: SPR
In short: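 Surface plasmon resonance (SPR) was used to determine the affinity (Kd) of human scFv antibodies for recombinant, N-terminally biotinylated human antigen. These antibodies were selected from a naïve human library panned against the CD70 extracellular domain, spanning aa39-193.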

[4] = target: T2, CD70 on cells (CHO-CD70, JVM-3, U266, …); experiment: 1.25 µg/mL scFv on CHO-CD70 cells
In short: as §1

[5] = target: T2, CD70 on cells (CHO-CD70, JVM-3, U266, …); experiment: 1.25 µg/mL scFv on U266 cells
In short: as §1

[6] = target: T1, human CD70, recombinant, N-terminally …; experiment: CD27 blocking ELISA, 3 µM scFv, anti-His/HRP; further: unit not given here
Description: Human scFv antibodies binding CD70 were generated by panning a naïve human library with the extracellular domain (aa39-193) of CD70. 53 antibodies were identified. The ability of CD27 to block CD70 binding of the identified antibodies was measured by ELISA using two different assays. In the first assay, CD27 and his-tagged scFv anti-CD70 binders were simultaneously added to surface bound CD70, and the ability of the scFv binders to bind CD70 was detected with anti-His HRP. In the second assay, plate-bound CD70 was pre-incubated with CD27 for 30 minutes, and then additional CD27 and the his-tagged scFv anti-CD70 binder was added. The ability of the scFv binders to bind CD70 was detected with anti-His HRP. FIG. 34 is a schematic of the two different CD27 blocking assays. CD70 affinity was also measured by SPR analysis. scFv antibodies were also tested for their ability to bind tumor cell lines with high (CHO-CD70, JVM3, and U266) and low levels (CHO WT and K562 of CD70 expression. Results for 39 antibodies are shown in Table 1 below.

B1: 59-TC4-VII-F02 (scFv)
scFv: QLQLQESGPGLVKPSGTLSLTCAVSGGSISSSNWWSWVRQPPGKGLEWIGEIYHSGSTNYNPSLKSRVTISVDKSKNQFSLKLSSVTAADTAVYYCAGPGPDPNDAFDIWGQGTMVTVSSGGSGGSGGSGGSSSELTQDPAVSVALGQTVRITCQGDSLRSYYASWYQQLPGTAPKLLIYQDSKRPSGIPERFSGSNSGNTATLTISGTQAMDEADYYCQAWDSSTAVFGGGTKLTVL
notes: His-tagged
B1 showed a strep/HRP [1] of 1.43, a cell binding [2] of 52100 and a Kd [3] of 101 nM. For the same binder, the cell binding [4] was 850000, the cell binding [5] was 18500 and the “anti His/HRP” value [6] was 2.06.

B2: 55-TC4-IX-G04 (scFv)
scFv: QVQLLESGGGVVQPGRSLRLSCAASGFTFSSYAMHWVRQAPGKGLEWVAVISYDGSNKYYADSVKGRFTISRDNSKNTLYLQMNSLRAEDTAVYYCARGLGFGSGWYEYVDAFDIWGQGTMVTVSSGGSGGSGGSGGSQSVLTQPASVSGSPGQSITISCTGTSSDVGSYNLVSWYQQHPGKAPKLMIYEVSKRPSGVSNRFSGSKSGNTASLTISGLQAEDEADYYCSSYRSNNTPWVFGGGTKLTVL
notes: His-tagged
Work on B2 yielded a strep/HRP [1] of 1.28, a cell binding [2] of 3570 and a Kd [3] of 984 nM. The cell binding [4] was 87200, the cell binding [5] was 2700 and the “anti His/HRP” value [6] was 1.24.

B3: 51-TC7-VIII-G06 (scFv)
scFv: QVQLLESGGGLVQPGRSLRLSCAASGFTFDDYAMHWVRQAPGKGLEWVSGITWNSGSIGYADSVKGRFTISRDNAKNSLYLQMNSLRAEDTAVYYCAREVAARPFYYYGMDVWGQGTTVTVSSGGSGGSGGSGGSQSVLTQPPSVSVAPGKTARITCGGNNIGSKSVHWYQQKPGQAPVLVVYDDSDRPSGIPERFSGSNSGNTATLTISGTQAMDEADYYCQAWDSSTVFGGGTKLTVL
notes: His-tagged
For B3, the strep/HRP [1] was 1.46, the cell binding [2] was 4260 and the Kd [3] was 532 nM. The cell binding [4] was 170000, the cell binding [5] was 2140 and the “anti His/HRP” value [6] was 0.676.

B4: 58-TC7-III-G11 (scFv)
scFv: EVQLVQSGGGVVQPGRSLRLSCAASGFTFSSYAMHWVRQAPGKGLEWVAVISYDGSNKYYADSVKGRFTISRDNSKNTLYLQMNSLRAEDTAVYYCATNSGYDSDYYYGMDVWGQGTTVTVSSGGSGGSGGSGGSQSVLTQPPSMSGAPGQRVTISCTGSSSNIGAGYDVHWYQHLPGTGPKLLIHGNTNRPSGVPDRFSGSKSGTSASLAITGLQAEDEADYYCQSYDNSLGGYVVFGGGTKVTVL
notes: His-tagged
B4 showed a strep/HRP [1] of 0.503, a cell binding [2] of 14700 and a Kd [3] of 8900 nM. For the same binder, the cell binding [4] was 277000, the cell binding [5] was 12000 and the “anti His/HRP” value [6] was 1.97.

B5: 46-TC7-VII-E11 (scFv)
scFv: QVQLVQSGGGVVQPGRSLRLSCAASGFTFSSYAMHWVRQAPGKGLEWVAVISYDGSNKYYADSVKGRFTISRDNSKNTLYLQMNSLRAEDTAVYYCARDSSGYYYGSDAFDIWGQGTMVTVSSGGSGGSGGSGGSSYELTQPPSVSVALGQTVRITCQGDSLRSYYASWYQQKPGQAPVLVIYGKNNRPSGIPDRFSGSSSGNTASLTITGAQAEDEADYYCNSRDSSGNPWVFGGGTKVTVL
notes: His-tagged
Work on B5 yielded a strep/HRP [1] of 1.26, a cell binding [2] of 1790 and a Kd [3] of 180 nM. For the same binder, the cell binding [4] was 76200, the cell binding [5] was 2290 and the “anti His/HRP” value [6] was 2.28.

B6: 14-TC4-III-A04 (scFv)
scFv: QVQLVQSGAEVKKPGASVKVSCKASGYTFTGYYMNWVRQAPGQGLEWMAWINPNTGDTNYAQKFQGRVTMTRDTSINTAYIELSRLTSDDTAVYYCARVGDYYDRSGYYRHDAFDIWGQGTMVTVSSGGSGGSGGSGGSSSELTQDPAVSVALGQTVRITCQGDSLRSYYASWYQQKPGQAPVLVIYGKNNRPSGIPDRFSGSSSGNTASLTITGAQAEDEADYYCQAWDSSTGVFGGGTKVTVL
notes: His-tagged
In the case of B6, the strep/HRP [1] is reported as 0.359, the cell binding [2] is reported as 17000 and the Kd [3] is reported as 13.7 nM. The cell binding [4] was 610000, the cell binding [5] was 20400 and the “anti His/HRP” value [6] was 2.81.

B7: 30-TC1.2-I-C08-1 (scFv)
scFv: QMQLVQSGAEVKKPGASVKVSCKASGYTFTSYGISWVRQAPGQGLEWMGWINPNTGGTDYAQKFQGRVTITRDTSITTGYMELSRLRSDDTAVYYCARHYYYGMDVWGQGTTVTVSSGGSGGSGGSGGSDIQLTQSPSSLSASVGDRVTITCQASQDISNYLNWYQQKPGKAPKLLIYDASNLETGVPSRFSGSGSGTDFTFTISSLQPEDIATYYCQQYDNLPLTFGGGTKVEIK
notes: His-tagged
B7 showed a strep/HRP [1] of 1.5, a cell binding [2] of 37400 and a Kd [3] of 67.3 nM. For the same binder, the cell binding [4] was 503000, the cell binding [5] was 17400 and the “anti His/HRP” value [6] was 1.83.

B8: 35-TC6-VII-A09 (scFv)
scFv: EVQLVQSGGGVVQPGRSLRLSCAASGFTFSSYGMHWVRQAPGKGLEWVAVISYDGSNKYYADSVKGRFTISRDNSKNTLYLQMNSLRAEDTAVYYCAKAGAPPHYYYGMDVWGQGTTVTVSSGGSGGSGGSGGSQSALTQPASVSGSPGQSITISCTGTSSDVGGYDYVSWYQQHPGKAPKLMIYEVTDRPSGIPNRFSGSKSGNTASLTISGLQAEDEADYYCSSYTYTSTLEVFGGGTKVTVL
notes: His-tagged
B8 was tested, and the strep/HRP [1] was 1.49, the cell binding [2] was 18800 and the Kd [3] was 367 nM. For the same binder, the cell binding [4] was 1.15e+06, the cell binding [5] was 16500 and the “anti His/HRP” value [6] was 0.639.

B9: 40-TC7-VI-F11 (scFv)
scFv: EVQLVESGGGVVQPGRSLRLSCAASGFTFSSYAMHWVRQAPGKGLEWVAVISYDGSNKYYADSVKGRFTISRDNSKNTLYLQMNSLRAEDTAVYYCARDGYGFDYWGQGTLVTVSSGGSGGSGGSGGSSYELTQSPSVSVAPGQTARITCGGNNIGSKSVHWYQQKPGQAPVLVVYDDSDRPSGIPERFSGSNSGNTATLTISRVEAGDEADYYCQVWDSSTPYVFGTGTKLTVL
notes: His-tagged
B9 gave a strep/HRP [1] of 1.37, a cell binding [2] of 4870 and a Kd [3] of 279 nM. For the same binder, the cell binding [4] was 235000, the cell binding [5] was 11800 and the “anti His/HRP” value [6] was 1.84.

B10: 52-TC7-VIII-C02 (scFv)
scFv: QVQLLESGGGVVQPGRSLRLSCAASGFTFSSYGMHWVRQAPGKGLEWVAVISYDGSNKYYADSVKGRFTISRDNSKNTLYLQMNSLRAEDTAVYYCAKGAYYYGSVSGMDVWGQGTTVTVSSGGSGGSGGSGGSSYELTQPVSVSVALGQTARLTCAGNNIGSKNVHWYQQKPSQAPVLVIYNDNIRPNFGIPERFSGSNSGNTATLTISSAQAGDEADYYCQVWDSSTAEVFGGGTKLTVL
notes: His-tagged
Work on B10 yielded a strep/HRP [1] of 0.533, a cell binding [2] of 8050 and a Kd [3] of 64.6 nM. The cell binding [4] was 430000, the cell binding [5] was 2980 and the “anti His/HRP” value [6] was 1.56.

B11: 43-TC4-VII-C04 (scFv)
scFv: QVQLLESGGGLVQPGRSLRLSCAASGFTFDDYAMHWVRQAPGKGLEWVSGISWNSGSIGYADSVKGRFTISRDNAKNSLYLQMNSLRAEDTAVYYCARDLVYYYGMDVWGQGTTVTVSSGGSGGSGGSGGSQSVLTQPPSVSGTPGQGVSISCSGSSSNIGWKTVNWYQQVPGMAPKLLIYSDNQRPSGVPDRFSGSKSATSASLAISGLQSEDEADYYCASWDASVNAPVFGGGTKLTVL
notes: His-tagged
B11 gave a strep/HRP [1] of 1.44, a cell binding [2] of 45000 and a Kd [3] of 69.9 nM. For the same binder, the cell binding [4] was 723000, the cell binding [5] was 20000 and the “anti His/HRP” value [6] was 1.81.

B12: 14-TC4-XIII-A01 (scFv)
scFv: QVQLVQSGAEVKKPGASVKVSCKASGYTFTGYYMNWVRQAPGQGLEWMAWINPNTGDTNYAQKFQGRVTMTRDTSINTAYIELSRLTSDDTAVYYCARVGDYYDRSGYYRHDAFDIWGQGTMVTVSSGGSGGSGGSGGSSSELTQDPAVSVALGQTVRITCQGDSLRSYYASWYQQKPGQAPVLVIYGKNNRPSGIPDRFSGSSSGNTASLTITGAQAMDEADYYCQAWDSSTGVVFGGGTKVTVL
notes: His-tagged
Binder B12 has a strep/HRP [1] of 1.46, a cell binding [2] of 1290 and a Kd [3] of 2830 nM. For the same binder, the cell binding [4] was 111000, the cell binding [5] was 953 and the “anti His/HRP” value [6] was 1.74.
